This data set has as its system Escherichia coli TOP10. In words: shrunken log2 fold change of peptide-encoding DNA abundance (4.5 h post-induction vs induction); higher = less antimicrobial activity (less host growth inhibition). The settings on record: time post-induction: 4.5 h; library: site-saturation at positions 5, 18, 19, 20.
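Also: peptides expressed intracellularly from a pBAD plasmid library in pooled LB shake-flask culture, induced with 0.3% L-arabinose, DNA abundance read by NGS, three biological replicates, DESeq2 with apeglm shrinkage.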

Take RRIRMRPPRLPRPRPRPYGWPRP: the “shrunken log2 fold change” value came to 0.0956.
Take RRIRNRPPRLPRPRPRPSHSPRP: the “shrunken log2 fold change” value is -0.182.
With RRIRCRPPRLPRPRPRPQFAPRP, the “shrunken log2 fold change” value is -0.239.
Take RRIRSRPPRLPRPRPRPQGRPRP: the “shrunken log2 fold change” value was -0.0801.
RRIRYRPPRLPRPRPRPHRVPRP: the “shrunken log2 fold change” value was -0.248.
For RRIRTRPPRLPRPRPRPFNEPRP, the “shrunken log2 fold change” value was -0.311.
As to RRIRFRPPRLPRPRPRPKAMPRP, the “shrunken log2 fold change” value came out at 0.23.
Turning to RRIRYRPPRLPRPRPRPTVWPRP, the “shrunken log2 fold change” value is 0.385.
RRIRGRPPRLPRPRPRPPYVPRP: the “shrunken log2 fold change” value is -0.21.
On to RRIRCRPPRLPRPRPRPEKRPRP, for which the “shrunken log2 fold change” value was -0.123.
Turning to RRIRIRPPRLPRPRPRPNCMPRP, the “shrunken log2 fold change” value was -0.287.
Consider RRIRARPPRLPRPRPRPPPQPRP, for which the “shrunken log2 fold change” value stood at 1.31.
For RRIRPRPPRLPRPRPRPFMTPRP the value was -0.511; for RRIRHRPPRLPRPRPRPLSEPRP, 0.203; for RRIRARPPRLPRPRPRPIELPRP, 0.00186.
As for RRIRYRPPRLPRPRPRPWPRPRP, the “shrunken log2 fold change” value turned out to be 0.209.
In the case of RRIRLRPPRLPRPRPRPLVMPRP, the “shrunken log2 fold change” value was -0.0627.
Turning to RRIRGRPPRLPRPRPRPPRAPRP, the “shrunken log2 fold change” value was 1.25.
Take RRIRQRPPRLPRPRPRPHALPRP: the “shrunken log2 fold change” value is -0.6.
As to RRIRDRPPRLPRPRPRPTGPPRP, the “shrunken log2 fold change” value was found to be 0.334.
As for RRIRIRPPRLPRPRPRPNSRPRP, the “shrunken log2 fold change” value is -0.0636.
For RRIRYRPPRLPRPRPRPDTCPRP the value was -0.233; for RRIRIRPPRLPRPRPRPVITPRP, -0.553.
As for RRIRKRPPRLPRPRPRPNGVPRP, the “shrunken log2 fold change” value amounted to 0.0149.
Take RRIRFRPPRLPRPRPRPSRDPRP: the “shrunken log2 fold change” value stood at 1.18.
In the case of RRIRHRPPRLPRPRPRPHHSPRP, the “shrunken log2 fold change” value was -0.147.
As to RRIRTRPPRLPRPRPRPQHFPRP, the “shrunken log2 fold change” value was -0.0212.
Consider RRIRYRPPRLPRPRPRPQLAPRP, for which the “shrunken log2 fold change” value was -0.228.
The figure for RRIRVRPPRLPRPRPRPFDRPRP is 0.121; for RRIRNRPPRLPRPRPRPRPQPRP it is 0.339.
The figure for RRIRERPPRLPRPRPRPPCSPRP is -0.258.
As for RRIRSRPPRLPRPRPRPFLVPRP, the “shrunken log2 fold change” value was -0.361.
On to RRIRARPPRLPRPRPRPCKIPRP, for which the “shrunken log2 fold change” value is -0.165.
As for RRIRQRPPRLPRPRPRPVPGPRP, the “shrunken log2 fold change” value is -0.141.
Turning to RRIRWRPPRLPRPRPRPPCTPRP, the “shrunken log2 fold change” value came out at 0.124.
RRIRTRPPRLPRPRPRPAYGPRP: the “shrunken log2 fold change” value is -0.285.
With RRIRNRPPRLPRPRPRPPLSPRP, the “shrunken log2 fold change” value turned out to be 0.502.
Take RRIRKRPPRLPRPRPRPRVWPRP: the “shrunken log2 fold change” value stood at 0.809.
Consider RRIRVRPPRLPRPRPRPFETPRP, for which the “shrunken log2 fold change” value is -0.0538.
Consider RRIRFRPPRLPRPRPRPYNHPRP, for which the “shrunken log2 fold change” value is -1.2.
As to RRIRDRPPRLPRPRPRPVLCPRP, the “shrunken log2 fold change” value was 0.28.
Regarding RRIRGRPPRLPRPRPRPSNAPRP, the “shrunken log2 fold change” value turned out to be 0.216.
For RRIRFRPPRLPRPRPRPRDTPRP the value was 0.0411.
Turning to RRIRLRPPRLPRPRPRPLFKPRP, the “shrunken log2 fold change” value is -0.188.
Consider RRIRHRPPRLPRPRPRPFPDPRP, for which the “shrunken log2 fold change” value turned out to be 0.0592.
As to RRIRERPPRLPRPRPRPQVGPRP, the “shrunken log2 fold change” value was -0.0112.
Regarding RRIRLRPPRLPRPRPRPACDPRP, the “shrunken log2 fold change” value came to 0.15.
With RRIRDRPPRLPRPRPRPEYHPRP, the “shrunken log2 fold change” value was -0.000207.
Regarding RRIRDRPPRLPRPRPRPTGAPRP, the “shrunken log2 fold change” value was 1.37.
As to RRIRPRPPRLPRPRPRPFIGPRP, the “shrunken log2 fold change” value was 0.108.
Regarding RRIRPRPPRLPRPRPRPYFSPRP, the “shrunken log2 fold change” value is -0.31.
For RRIRKRPPRLPRPRPRPVIIPRP the value was 0.0356; for RRIRIRPPRLPRPRPRPCLRPRP, -1.04.
The figure for RRIRCRPPRLPRPRPRPQGGPRP is -0.107; for RRIRQRPPRLPRPRPRPMQEPRP it is 0.0325; for RRIRTRPPRLPRPRPRPHKGPRP it is 0.0731.
Regarding RRIRARPPRLPRPRPRPRIMPRP, the “shrunken log2 fold change” value is 0.121.
With RRIRRRPPRLPRPRPRPGKRPRP, the “shrunken log2 fold change” value is 0.363.
For RRIRLRPPRLPRPRPRPHHFPRP, the “shrunken log2 fold change” value is -0.128.
Take RRIRQRPPRLPRPRPRPPFTPRP: the “shrunken log2 fold change” value was -0.0512.
In the case of RRIRKRPPRLPRPRPRPPIGPRP, the “shrunken log2 fold change” value is 0.407.
In the case of RRIRTRPPRLPRPRPRPNYCPRP, the “shrunken log2 fold change” value was -0.0491.
The figure for RRIRTRPPRLPRPRPRPNEIPRP is -0.128; for RRIRNRPPRLPRPRPRPPADPRP it is 0.595; for RRIRGRPPRLPRPRPRPWLRPRP it is 0.306.
For RRIRIRPPRLPRPRPRPSAAPRP, the “shrunken log2 fold change” value worked out at 0.0317.
For RRIRNRPPRLPRPRPRPADYPRP the value was -0.24.
Take RRIRARPPRLPRPRPRPRRGPRP: the “shrunken log2 fold change” value turned out to be 0.759.
For RRIRIRPPRLPRPRPRPNDRPRP the value was -0.0756.
In the case of RRIRSRPPRLPRPRPRPCHHPRP, the “shrunken log2 fold change” value was -0.179.
On to RRIRWRPPRLPRPRPRPIANPRP, for which the “shrunken log2 fold change” value turned out to be 0.00334.
The figure for RRIRDRPPRLPRPRPRPVSDPRP is -0.145; for RRIRDRPPRLPRPRPRPVGDPRP it is 0.47; for RRIRNRPPRLPRPRPRPARMPRP it is 0.991.
On to RRIRVRPPRLPRPRPRPCHRPRP, for which the “shrunken log2 fold change” value was -0.0177.
Regarding RRIRDRPPRLPRPRPRPGAFPRP, the “shrunken log2 fold change” value was 0.357.
For RRIRRRPPRLPRPRPRPAWHPRP the value was 0.527; for RRIRKRPPRLPRPRPRPAKGPRP, 0.136.
As to RRIRERPPRLPRPRPRPINYPRP, the “shrunken log2 fold change” value is -0.286.
On to RRIRHRPPRLPRPRPRPGFTPRP, for which the “shrunken log2 fold change” value was -0.358.
Consider RRIRHRPPRLPRPRPRPAVTPRP, for which the “shrunken log2 fold change” value is -0.1.
In the case of RRIRSRPPRLPRPRPRPYRQPRP, the “shrunken log2 fold change” value is -0.402.
In the case of RRIRPRPPRLPRPRPRPIYSPRP, the “shrunken log2 fold change” value was -0.225.
The figure for RRIRVRPPRLPRPRPRPGQCPRP is -0.0287; for RRIRERPPRLPRPRPRPECIPRP it is 0.248.
Consider RRIRARPPRLPRPRPRPYSGPRP, for which the “shrunken log2 fold change” value was -0.0581.
In the case of RRIRVRPPRLPRPRPRPQCPPRP, the “shrunken log2 fold change” value was -0.0117.
For RRIRCRPPRLPRPRPRPHFIPRP the value was -0.528; for RRIRLRPPRLPRPRPRPHPTPRP, -0.094.
On to RRIRLRPPRLPRPRPRPSGHPRP, for which the “shrunken log2 fold change” value is -0.208.
RRIRHRPPRLPRPRPRPPAPPRP: the “shrunken log2 fold change” value amounted to 0.466.

Source of the values: the supplement of paper PMC9112550, “Optimization of the antimicrobial peptide Bac7 by deep mutational scanning” (BMC Biology, 2022).
